{"source": "FireProtDB (doi:10.1016/j.bpj.2013.08.038)", "conditions": "Pseudomonas aeruginosa (strain ATCC 15692 / DSM 22644 / CIP 104116 / JCM 14847 / LMG 12228 / 1C / PRS 101 / PAO1), pH 7, CD, transition: 2, reversible: yes, whole UniProt chain shown; for denaturant m value / unfolding free energy: 25 °C, GdnHCl; for Tm / unfolding enthalpy (calorimetric): Thermal", "note": "Several values for one entry are separate records, joined by “and”; a condition that tells them apart may be missing. Equal values may be shown once."}
{"protein": "Azurin wild type, P00282 (protein) MLRKLAAVSLLSLLSAPLLAAECSVDIQGNDQMQFNTNAITVDKSCKQFTVNLSHPGNLPKNVMGHNWVLSTAADMQGVVTDGMASGLDKDYLKPDDSRVIAHTKLIGSGEKDSVTFDVSKLKEGEQYMFFCTFPGHSALMKGTLTLK", "values": [{"measurement": "denaturant m value", "setting": "Dextran 20 50 mg/ml", "value": 4.99, "unit": "kcal/mol/M"}, {"measurement": "denaturant m value", "setting": "Dextran 20 100 mg/ml", "value": "4.99 kcal/mol/M and 4.87 kcal/mol/M"}, {"measurement": "unfolding free energy", "setting": "Dextran 20 100 mg/ml", "value": 8.71, "unit": "kcal/mol"}, {"measurement": "denaturant m value", "setting": "Dextran 20 150 mg/ml", "value": 4.68, "unit": "kcal/mol/M"}, {"measurement": "denaturant m value", "setting": "Dextran 20 200 mg/ml", "value": 4.66, "unit": "kcal/mol/M"}, {"measurement": "denaturant m value", "setting": "Dextran20 200 mg/ml", "value": 4.66, "unit": "kcal/mol/M"}, {"measurement": "denaturant m value", "setting": "Dextran 20 250 mg/ml", "value": 4.49, "unit": "kcal/mol/M"}, {"measurement": "unfolding free energy", "setting": "Dextran 20 250 mg/ml", "value": 9.29, "unit": "kcal/mol"}, {"measurement": "denaturant m value", "setting": "Dextran 20 300 mg/ml", "value": 4.9, "unit": "kcal/mol/M"}, {"measurement": "unfolding free energy", "setting": "Dextran 20 300 mg/ml", "value": 9.65, "unit": "kcal/mol"}, {"measurement": "denaturant m value", "setting": "Dextran 40 200 mg/ml", "value": 5.11, "unit": "kcal/mol/M"}, {"measurement": "unfolding free energy", "setting": "Dextran 40 200 mg/ml", "value": 8.95, "unit": "kcal/mol"}, {"measurement": "denaturant m value", "setting": "Dextran 40 250 mg/ml", "value": 4.08, "unit": "kcal/mol/M"}, {"measurement": "unfolding free energy", "setting": "Dextran 40 250 mg/ml", "value": 9.5, "unit": "kcal/mol"}, {"measurement": "denaturant m value", "setting": "Dextran 40 300 mg/ml", "value": 4.68, "unit": "kcal/mol/M"}, {"measurement": "unfolding free energy", "setting": "Dextran 40 300 mg/ml", "value": 9.65, "unit": "kcal/mol"}, {"measurement": "denaturant m value", "setting": "Dextran 70 100 mg/ml", "value": 4.9, "unit": "kcal/mol/M"}, {"measurement": "unfolding free energy", "setting": "Dextran 70 100 mg/ml", "value": 8.59, "unit": "kcal/mol"}, {"measurement": "denaturant m value", "setting": "Dextran 70 200 mg/ml", "value": 4.73, "unit": "kcal/mol/M"}, {"measurement": "unfolding free energy", "setting": "Dextran 70 200 mg/ml", "value": 8.86, "unit": "kcal/mol"}, {"measurement": "denaturant m value", "setting": "Dextran 70 300 mg/ml", "value": 4.68, "unit": "kcal/mol/M"}, {"measurement": "unfolding free energy", "setting": "Dextran 70 300 mg/ml", "value": 9.65, "unit": "kcal/mol"}, {"measurement": "denaturant m value", "setting": "Ficoll 70 50 mg/ml", "value": 5.09, "unit": "kcal/mol/M"}, {"measurement": "denaturant m value", "setting": "Ficoll 70 100 mg/ml", "value": 4.97, "unit": "kcal/mol/M"}, {"measurement": "denaturant m value", "setting": "Ficoll 70 150 mg/ml", "value": 4.46, "unit": "kcal/mol/M"}, {"measurement": "denaturant m value", "setting": "Ficoll 70 200 mg/ml", "value": 4.92, "unit": "kcal/mol/M"}, {"measurement": "denaturant m value", "setting": "Ficoll 70 250 mg/ml", "value": 4.94, "unit": "kcal/mol/M"}, {"measurement": "denaturant m value", "setting": "Ficoll 70 300 mg/ml", "value": 5.16, "unit": "kcal/mol/M"}, {"measurement": "denaturant m value", "value": 4.92, "unit": "kcal/mol/M"}, {"measurement": "Tm", "setting": "Dextran 20 50 mg/ml", "value": 64, "unit": "°C"}, {"measurement": "unfolding enthalpy (calorimetric)", "setting": "Dextran 20 50 mg/ml", "value": 112, "unit": "kcal/mol"}, {"measurement": "Tm", "setting": "Dextran 20 100 mg/ml", "value": 65, "unit": "°C"}, {"measurement": "unfolding enthalpy (calorimetric)", "setting": "Dextran 20 100 mg/ml", "value": 114, "unit": "kcal/mol"}, {"measurement": "Tm", "setting": "Dextran 20 150 mg/ml", "value": 65, "unit": "°C"}, {"measurement": "unfolding enthalpy (calorimetric)", "setting": "Dextran 20 150 mg/ml", "value": 115, "unit": "kcal/mol"}, {"measurement": "Tm", "setting": "Dextran 20 200 mg/ml", "value": 66, "unit": "°C"}, {"measurement": "unfolding enthalpy (calorimetric)", "setting": "Dextran 20 200 mg/ml", "value": 120, "unit": "kcal/mol"}, {"measurement": "Tm", "setting": "Dextran20 200 mg/ml", "value": 66, "unit": "°C"}, {"measurement": "Tm", "setting": "Dextran 20 250 mg/ml", "value": 67, "unit": "°C"}, {"measurement": "unfolding enthalpy (calorimetric)", "setting": "Dextran 20 250 mg/ml", "value": 107, "unit": "kcal/mol"}, {"measurement": "Tm", "setting": "Dextran 40 200 mg/ml", "value": 66, "unit": "°C"}, {"measurement": "Tm", "setting": "Dextran 70 100 mg/ml", "value": 65, "unit": "°C"}, {"measurement": "Tm", "setting": "Dextran 70 200 mg/ml", "value": 68, "unit": "°C"}, {"measurement": "Tm", "setting": "Ficoll 70 50 mg/ml", "value": 64, "unit": "°C"}, {"measurement": "unfolding enthalpy (calorimetric)", "setting": "Ficoll 70 50 mg/ml", "value": 117, "unit": "kcal/mol"}, {"measurement": "Tm", "setting": "Ficoll 70 100 mg/ml", "value": 64, "unit": "°C"}, {"measurement": "unfolding enthalpy (calorimetric)", "setting": "Ficoll 70 100 mg/ml", "value": 117, "unit": "kcal/mol"}, {"measurement": "Tm", "setting": "Ficoll 70 150 mg/ml", "value": 65, "unit": "°C"}, {"measurement": "unfolding enthalpy (calorimetric)", "setting": "Ficoll 70 150 mg/ml", "value": 118, "unit": "kcal/mol"}, {"measurement": "Tm", "setting": "Ficoll 70 200 mg/ml", "value": 65, "unit": "°C"}, {"measurement": "unfolding enthalpy (calorimetric)", "setting": "Ficoll 70 200 mg/ml", "value": 117, "unit": "kcal/mol"}, {"measurement": "Tm", "setting": "Ficoll 70 250 mg/ml", "value": 65, "unit": "°C"}, {"measurement": "unfolding enthalpy (calorimetric)", "setting": "Ficoll 70 250 mg/ml", "value": 113, "unit": "kcal/mol"}]}
